In publication PMC9558310 (ACS Chemical Biology, 2019):

B1: tag-free recombinant human pyridoxal 5'-phosphate-binding protein (PLPBP) (natural protein)
chain: not shown
modifications: pyridoxal 5'-phosphate bound at Lys47 (internal aldimine)
B2: Strep-tag recombinant human PLPBP (natural protein)
chain: not shown
modifications: pyridoxal 5'-phosphate bound at Lys47 (internal aldimine)
B3: human PLPBP R41Q mutant (natural protein)
chain: not shown
modifications: fully saturated with PLP after purification

Molecular target: the molecule itself
Test: SEC

Row | Protein | stoichiometry N | binding result
1 | B1 | 2 | –
2 | B2 | 2 | –
3 | B3 | – | binds
